# Numbered stars: 1 amine (or outer) side, 2 acyl side, 3 side chain; on linkers, the order of the positions; unused ones are H or OH. Bridge positions count the residues as written; N and C are the ends. Square brackets hold non-standard residues; d marks the D form. Trp(7-nPr) = CCCc1cccc2c(C[C@H](N[*:1])C(=O)[*:2])c[nH]c12; Trp(7-Me) = Cc1cccc2c(C[C@H](N)C(=O)O)c[nH]c12; 2Nal = N[C@@H](Cc1ccc2ccccc2c1)C(=O)O; AEF = NCCOc1ccc(C[C@H](N)C(=O)O)cc1; Cit = NC(=O)NCCC[C@H](N)C(=O)O; Pen = CC(C)(S)[C@H](N)C(=O)O; αMeK = C[C@](N)(CCCCN)C(=O)O; Abu = CC[C@H](N)C(=O)O; Aib = CC(C)(N)C(=O)O
# T1: IL-23R (human, UniProt Q5VWK5 24-629)
# T1 sequence (looked up): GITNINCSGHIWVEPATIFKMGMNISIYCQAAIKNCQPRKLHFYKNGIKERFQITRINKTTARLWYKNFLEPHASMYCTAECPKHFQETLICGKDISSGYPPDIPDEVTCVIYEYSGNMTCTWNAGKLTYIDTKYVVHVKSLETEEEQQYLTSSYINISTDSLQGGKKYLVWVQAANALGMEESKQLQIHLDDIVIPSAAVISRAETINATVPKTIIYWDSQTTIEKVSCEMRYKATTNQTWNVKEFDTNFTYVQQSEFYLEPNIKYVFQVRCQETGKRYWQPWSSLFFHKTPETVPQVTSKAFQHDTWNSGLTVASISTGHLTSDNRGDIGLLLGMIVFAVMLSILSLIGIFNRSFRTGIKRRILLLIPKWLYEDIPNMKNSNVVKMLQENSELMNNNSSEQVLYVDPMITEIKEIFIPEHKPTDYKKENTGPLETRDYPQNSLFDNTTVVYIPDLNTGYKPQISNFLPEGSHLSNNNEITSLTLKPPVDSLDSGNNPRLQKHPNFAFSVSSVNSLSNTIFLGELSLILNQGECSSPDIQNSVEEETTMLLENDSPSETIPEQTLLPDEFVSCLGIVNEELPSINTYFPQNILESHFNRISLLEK
# Assays:
# IL-23R [1] = target: T1, IL-23R; experiment: cell-based or functional assay
# IL-23R [2] = target: T1, IL-23R; experiment: cell-based or functional assay; remark: listed apart in the source
Binder,pStat3 HTRF (nM) IC50 (IL-23R [1]),NK Cell Assay (nM) IC50 (IL-23R [2])
XNTXKXXXXEXX (Ac-[Pen]-N-T-[W(7-Me)]-[Lys(Ac)]-[Pen]-Phe[4-(2-aminoethoxy)]-[2-Nal]-[a-MeLys]-E-[bA]-[bA]-NH2; Pen-Pen disulfide) [SEQ ID NO: 273],–,< 10 nM
Ac-[Pen]NT[Trp(7-Me)][Cit][Pen][AEF][2Nal][αMeK]K(Ac)N[Aib][dF]-NH2 (disulfide 1-6; SMILES CC(=O)NCCCC[C@H](NC(=O)[C@](C)(CCCCN)NC(=O)[C@H](Cc1ccc2ccccc2c1)NC(=O)[C@H](Cc1ccc(OCCN)cc1)NC(=O)[C@H]1NC(=O)[C@H](CCCNC(N)=O)NC(=O)[C@H](Cc2c[nH]c3c(C)cccc23)NC(=O)[C@H]([C@@H](C)O)NC(=O)[C@H](CC(N)=O)NC(=O)[C@@H](NC(C)=O)C(C)(C)SSC1(C)C)C(=O)N[C@@H](CC(N)=O)C(=O)NC(C)(C)C(=O)N[C@H](Cc1ccccc1)C(N)=O) [SEQ ID NO: 346],< 1 nM,–
XNTXKXXXXKSX (Ac-[Pen]-N-T-[W(7-Me)]-[Lys(Ac)]-[Pen]-Phe[4-(2-aminoethoxy)]-[2-Nal]-[a-MeLys]-[Lys(Ac)]-S-[bA]-NH2; Pen-Pen disulfide) [SEQ ID NO: 271],–,< 10 nM
XNTXQXXXXENX (Ac-[Pen]-N-T-[W(7-Me)]-Q-[Pen]-Phe[4-(2-aminoethoxy)]-[2-Nal]-[a-MeLys]-E-N-[bA]-NH2; Pen-Pen disulfide) [SEQ ID NO: 282],–,< 10 nM
XNTXKXXXXKNV (Ac-[Pen]-NT-[W(7-Me)]-[Lys(Ac)]-[Pen]-Phe[4-(2-aminoethoxy)]-[2-Nal]-[a-MeLys]-[Lys(Ac)]-N-[(D)Val]-NH2; Pen-Pen disulfide) [SEQ ID NO: 251],< 1 nM,< 10 nM
Ac-[Pen]NT[Trp(7-nPr)]K(Ac)[Pen][AEF][2Nal][αMeK]K(Ac)N[dL]-NH2 (disulfide 1-6 (inferred)) [SEQ ID NO: 285],< 1 nM,< 10 nM
XNTXQXXXXKNX (Ac-[Pen]-NT-[W(1-Me)]-Q-[Pen]-Phe[4-(2-aminoethoxy)]-[2-Nal]-[a-MeLys]-[Lys(Ac)]-N-[bA]-NH2; Pen-Pen disulfide) [SEQ ID NO: 232],–,< 10 nM
XNTXQXXXXKLX (Ac-[Pen]-NT-[W(7-Me)]-Q-[Pen]-Phe[4-(2-aminoethoxy)]-[2-Nal]-[a-MeLeu]-[Lys(Ac)]-L-[bA]-NH2; Pen-Pen disulfide) [SEQ ID NO: 208],–,< 10 nM
Ac-[Pen]NT[Trp(7-Me)]K(Ac)[Pen][2Nal][2Nal][αMeK]K(Ac)N[dL]-NH2 (disulfide 1-6 (inferred)) [SEQ ID NO: 289],–,< 10 nM

# The next lines start with the values.
pStat3 HTRF (nM) IC50 (IL-23R [1]),NK Cell Assay (nM) IC50 (IL-23R [2]),Binder
< 1 nM,< 10 nM,Ac-[Pen]NT[Trp(7-Me)][Cit][Pen][AEF][2Nal][αMeK]K(Ac)N[dY]-NH2 (disulfide 1-6 (inferred)) [SEQ ID NO: 259]
–,< 10 nM,XNTXQXXXXKHX (Ac-[Pen]-NT-[W(7-Me)]-Q-[Pen]-Phe[4-(2-aminoethoxy)]-[2-Nal]-[a-MeLeu]-[Lys(Ac)]-H-[bA]-NH2; Pen-Pen disulfide) [SEQ ID NO: 214]
–,< 10 nM,XNTXQXXXXXNX (Ac-[Pen]-NT-[W(7-Me)]-Q-[Pen]-Phe[4-(2-aminoethoxy)]-[2-Nal]-[a-MeLys]-[Aib]-N-[bA]-NH2; Pen-Pen disulfide) [SEQ ID NO: 236]
–,< 10 nM,XNTXQXXXXKAX (Ac-[Pen]-NT-[W(7-Me)]-Q-[Pen]-Phe[4-(2-aminoethoxy)]-[2-Nal]-[a-MeLeu]-[Lys(Ac)]-A-[bA]-NH2; Pen-Pen disulfide) [SEQ ID NO: 207]
< 1 nM,–,Ac-[Pen]NT[Trp(7-Me)][Cit][Pen][AEF][2Nal][αMeK]K(Ac)N[Aib][dR]-NH2 (disulfide 1-6; SMILES CC(=O)NCCCC[C@H](NC(=O)[C@](C)(CCCCN)NC(=O)[C@H](Cc1ccc2ccccc2c1)NC(=O)[C@H](Cc1ccc(OCCN)cc1)NC(=O)[C@H]1NC(=O)[C@H](CCCNC(N)=O)NC(=O)[C@H](Cc2c[nH]c3c(C)cccc23)NC(=O)[C@H]([C@@H](C)O)NC(=O)[C@H](CC(N)=O)NC(=O)[C@@H](NC(C)=O)C(C)(C)SSC1(C)C)C(=O)N[C@@H](CC(N)=O)C(=O)NC(C)(C)C(=O)N[C@H](CCCNC(=N)N)C(N)=O) [SEQ ID NO: 345]
–,< 10 nM,Ac-[dR][Abu]QT[Trp(7-Me)]K(Ac)C[AEF][2Nal][αMeK]K(Ac)N[dK]-NH2 (thioether 2-7) [SEQ ID NO: 324]
> 100 nM,< 10 nM,XNTXQXXXXKXX (Ac-[Pen]-NT-[W(7-Me)]-Q-[Pen]-Phe[4-(2-aminoethoxy)]-[2-Nal]-[a-MeLeu]-[Lys(Ac)]-[N-MeAla]-[bA]-NH2; Pen-Pen disulfide) [SEQ ID NO: 223]
> 100 nM,–,XNTXQXXXXGPX (Ac-[Pen]-NT-[W(7-Me)]-Q-[Pen]-Phe[4-(2-aminoethoxy)]-[2-Nal]-[a-MeLeu]-G-[(D)Pro]-[bA]-NH2; Pen-Pen disulfide) [SEQ ID NO: 220]
–,< 10 nM,XNTXQXXXXKSX (Ac-[Pen]-NT-[W(7-Me)]-Q-[Pen]-Phe[4-(2-aminoethoxy)]-[2-Nal]-[a-MeLeu]-[Lys(Ac)]-S-[bA]-NH2; Pen-Pen disulfide) [SEQ ID NO: 221]
–,< 10 nM,XNTXXXXXXKNX (Ac-[Pen]-NT-[W(7-Me)]-[a-MeLys]-[Pen]-Phe[4-(2-aminoethoxy)]-[2-Nal]-[a-MeLeu]-[Lys(Ac)]-N-[bA]-NH2; Pen-Pen disulfide) [SEQ ID NO: 234]

# — patent US20260116921A1, “PEPTIDE INHIBITORS OF INTERLEUKIN-23 RECEPTOR AND THEIR USE TO TREAT INFLAMMATORY DISEASES” (priority 2018, published 2026)
